# Measurements as given in patent US20030068675, “Position dependent recognition of GNN nucleotide triplets by zinc fingers” (published 2003).
# T1: ZFP SBS#757 (synthetic, UniProt P08047)
# T1 chain: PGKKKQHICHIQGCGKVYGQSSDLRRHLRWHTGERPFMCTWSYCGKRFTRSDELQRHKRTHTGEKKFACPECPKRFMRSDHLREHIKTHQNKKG
# T2: ZFP SBS#758 (synthetic, UniProt P08047)
# T2 chain: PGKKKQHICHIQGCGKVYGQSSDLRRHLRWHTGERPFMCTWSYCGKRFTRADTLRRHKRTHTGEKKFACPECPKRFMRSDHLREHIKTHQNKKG
# T3: ZFP SBS#740 (synthetic)
# T3 chain: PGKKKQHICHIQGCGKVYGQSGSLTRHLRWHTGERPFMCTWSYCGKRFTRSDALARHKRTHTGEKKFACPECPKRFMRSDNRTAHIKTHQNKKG
# T4: ZFP SBS#776 (synthetic)
# T4 chain: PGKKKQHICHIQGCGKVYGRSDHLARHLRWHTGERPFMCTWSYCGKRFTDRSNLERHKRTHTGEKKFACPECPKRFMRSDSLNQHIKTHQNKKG
# T5: ZFP SBS#777 (synthetic)
# T5 chain: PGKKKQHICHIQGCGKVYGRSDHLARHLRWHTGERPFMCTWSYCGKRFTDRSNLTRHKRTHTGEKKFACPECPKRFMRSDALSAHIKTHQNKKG
# T6: ZFP SBS#747 (synthetic)
# T6 chain: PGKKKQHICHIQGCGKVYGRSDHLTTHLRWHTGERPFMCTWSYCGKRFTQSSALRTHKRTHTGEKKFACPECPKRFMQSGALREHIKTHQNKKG
# T7: ZFP SBS#735 (synthetic)
# T7 chain: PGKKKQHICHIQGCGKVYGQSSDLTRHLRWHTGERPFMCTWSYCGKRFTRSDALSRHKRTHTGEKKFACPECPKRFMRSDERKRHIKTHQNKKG
# T8: ZFP SBS#761 (synthetic)
# T8 chain: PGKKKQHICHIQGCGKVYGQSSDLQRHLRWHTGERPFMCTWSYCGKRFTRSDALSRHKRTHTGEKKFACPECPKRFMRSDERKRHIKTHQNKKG
# T9: ZFP SBS#736 (synthetic, UniProt P08047)
# T9 chain: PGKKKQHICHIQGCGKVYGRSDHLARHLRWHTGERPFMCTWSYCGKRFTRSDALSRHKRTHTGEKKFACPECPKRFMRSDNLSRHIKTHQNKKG
# T10: ZFP SBS#752 (synthetic, UniProt P08047)
# T10 chain: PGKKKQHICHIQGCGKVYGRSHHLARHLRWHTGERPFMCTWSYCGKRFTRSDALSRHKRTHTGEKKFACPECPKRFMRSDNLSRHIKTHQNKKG
# T11: ZFP SBS#567 (synthetic)
# T11 chain: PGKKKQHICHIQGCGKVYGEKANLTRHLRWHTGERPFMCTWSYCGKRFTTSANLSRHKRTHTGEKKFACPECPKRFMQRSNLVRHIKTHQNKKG
# T12: ZFP SBS#712 (synthetic)
# T12 chain: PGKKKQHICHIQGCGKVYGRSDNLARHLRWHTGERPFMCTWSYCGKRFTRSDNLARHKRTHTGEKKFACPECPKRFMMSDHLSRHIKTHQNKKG
# T13: ZFP SBS#728 (synthetic)
# T13 chain: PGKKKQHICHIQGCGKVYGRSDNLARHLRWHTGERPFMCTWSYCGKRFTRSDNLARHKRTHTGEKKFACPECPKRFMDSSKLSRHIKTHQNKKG
# T14: ZFP SBS#713 (synthetic)
# T14 chain: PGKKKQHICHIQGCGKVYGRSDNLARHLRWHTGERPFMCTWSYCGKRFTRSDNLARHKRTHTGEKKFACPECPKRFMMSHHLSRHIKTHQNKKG
# T15: ZFP SBS#748 (synthetic)
# T15 chain: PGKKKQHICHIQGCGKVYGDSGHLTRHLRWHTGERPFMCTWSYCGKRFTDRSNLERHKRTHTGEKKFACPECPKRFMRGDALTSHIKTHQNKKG
# T16: ZFP SBS#759 (synthetic)
# T16 chain: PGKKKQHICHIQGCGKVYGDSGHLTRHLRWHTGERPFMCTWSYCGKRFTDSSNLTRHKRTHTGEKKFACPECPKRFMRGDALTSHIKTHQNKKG
# T17: ZFP SBS#749 (synthetic)
# T17 chain: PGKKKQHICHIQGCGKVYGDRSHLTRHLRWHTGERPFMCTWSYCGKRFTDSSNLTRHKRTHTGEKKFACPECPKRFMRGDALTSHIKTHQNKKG
# T18: ZFP SBS#760 (synthetic)
# T18 chain: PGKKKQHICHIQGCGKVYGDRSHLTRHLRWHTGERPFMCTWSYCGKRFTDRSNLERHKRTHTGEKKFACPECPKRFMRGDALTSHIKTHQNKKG
# T19: ZFP SBS#430 (synthetic)
# T19 chain: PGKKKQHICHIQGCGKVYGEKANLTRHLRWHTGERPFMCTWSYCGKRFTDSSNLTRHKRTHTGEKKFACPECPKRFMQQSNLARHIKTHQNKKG
# T20: ZFP SBS#568 (synthetic)
# T20 chain: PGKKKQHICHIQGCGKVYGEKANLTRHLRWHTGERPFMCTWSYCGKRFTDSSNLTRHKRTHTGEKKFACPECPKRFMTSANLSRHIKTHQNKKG
# T21: ZFP SBS#745 (synthetic)
# T21 chain: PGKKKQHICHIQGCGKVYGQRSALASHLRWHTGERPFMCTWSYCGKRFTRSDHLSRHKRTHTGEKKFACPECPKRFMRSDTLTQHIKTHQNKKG
# T22: ZFP SBS#744 (synthetic)
# T22 chain: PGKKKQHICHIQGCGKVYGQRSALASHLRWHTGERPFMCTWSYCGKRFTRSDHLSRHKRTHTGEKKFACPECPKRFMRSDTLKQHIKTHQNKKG
# T23: ZFP SBS#742 (synthetic)
# T23 chain: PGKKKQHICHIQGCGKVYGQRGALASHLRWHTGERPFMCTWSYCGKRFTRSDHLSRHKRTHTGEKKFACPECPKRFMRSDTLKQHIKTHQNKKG
# T24: ZFP SBS#743 (synthetic)
# T24 chain: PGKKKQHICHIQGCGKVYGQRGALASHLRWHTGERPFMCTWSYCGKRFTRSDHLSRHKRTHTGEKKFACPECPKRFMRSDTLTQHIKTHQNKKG
# Legend:
# Experiment in all cases: EMSA
# Conditions in all cases: tags: MBP fusion
# ZFP SBS#757 = target: T1, ZFP SBS#757
# Summary of the method: (§1)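 Purified ZFP was titrated against labeled double-stranded target (1 nM or lower, at least 10-fold below expected Kd) carrying the natural binding site with flanks. Binding buffer was 10 mM Tris pH 7.5, 100 mM KCl, 1 mM MgCl2, 0.1 mM ZnCl2, 5 mM DTT, 10% glycerol, 0.02% BSA, with equilibration for at least 45 min. Bound and free target were separated on a 10% polyacrylamide gel.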
# ZFP SBS#758 = target: T2, ZFP SBS#758
# Summary of the method: as §1
# ZFP SBS#741 = ZFP SBS#741 (synthetic)
# Summary of the method: as §1
# ZFP SBS#740 = target: T3, ZFP SBS#740
# Summary of the method: as §1
# ZFP SBS#607 = ZFP SBS#607 (synthetic)
# Summary of the method: as §1
# ZFP SBS#704 = ZFP SBS#704 (synthetic)
# Summary of the method: as §1
# ZFP SBS#776 = target: T4, ZFP SBS#776
# Summary of the method: as §1
# ZFP SBS#777 = target: T5, ZFP SBS#777
# Summary of the method: as §1
# ZFP SBS#747 = target: T6, ZFP SBS#747
# Summary of the method: as §1
# ZFP SBS#727 = ZFP SBS#727 (synthetic, UniProt P08047)
# Summary of the method: as §1
# ZFP SBS#735 = target: T7, ZFP SBS#735
# Summary of the method: as §1
# ZFP SBS#762 = ZFP SBS#762 (synthetic, UniProt P08047)
# Summary of the method: as §1
# ZFP SBS#761 = target: T8, ZFP SBS#761
# Summary of the method: as §1
# ZFP SBS#736 = target: T9, ZFP SBS#736
# Summary of the method: as §1
# ZFP SBS#752 = target: T10, ZFP SBS#752
# Summary of the method: as §1
# ZFP SBS#779 = ZFP SBS#779 (synthetic)
# Summary of the method: as §1
# ZFP SBS#780 = ZFP SBS#780 (synthetic)
# Summary of the method: as §1
# ZFP SBS#734 = ZFP SBS#734 (synthetic)
# Summary of the method: as §1
# ZFP SBS#567 = target: T11, ZFP SBS#567
# Summary of the method: as §1
# ZFP SBS#429 = ZFP SBS#429 (synthetic)
# Summary of the method: as §1
# ZFP SBS#428 = ZFP SBS#428 (synthetic)
# Summary of the method: as §1
# ZFP SBS#712 = target: T12, ZFP SBS#712
# Summary of the method: as §1
# ZFP SBS#728 = target: T13, ZFP SBS#728
# Summary of the method: as §1
# ZFP SBS#751 = ZFP SBS#751 (synthetic)
# Summary of the method: as §1
# ZFP SBS#713 = target: T14, ZFP SBS#713
# Summary of the method: as §1
# ZFP SBS#748 = target: T15, ZFP SBS#748
# Summary of the method: as §1
# ZFP SBS#759 = target: T16, ZFP SBS#759
# Summary of the method: as §1
# ZFP SBS#749 = target: T17, ZFP SBS#749
# Summary of the method: as §1
# ZFP SBS#760 = target: T18, ZFP SBS#760
# Summary of the method: as §1
# ZFP SBS#430 = target: T19, ZFP SBS#430
# Summary of the method: as §1
# ZFP SBS#568 = target: T20, ZFP SBS#568
# Summary of the method: as §1
# ZFP SBS#745 = target: T21, ZFP SBS#745
# Summary of the method: as §1
# ZFP SBS#744 = target: T22, ZFP SBS#744
# Summary of the method: as §1
# ZFP SBS#742 = target: T23, ZFP SBS#742
# Summary of the method: as §1
# ZFP SBS#743 = target: T24, ZFP SBS#743
# Summary of the method: as §1
# ZFP SBS#733 = ZFP SBS#733 (synthetic)
# Summary of the method: as §1
# ZFP SBS#732 = ZFP SBS#732 (synthetic)
# Summary of the method: as §1
# ZFP SBS#746 = ZFP SBS#746 (synthetic)
# Summary of the method: as §1
# Sequence of ZFP SBS#732 (synthetic) (chain, as listed by the source): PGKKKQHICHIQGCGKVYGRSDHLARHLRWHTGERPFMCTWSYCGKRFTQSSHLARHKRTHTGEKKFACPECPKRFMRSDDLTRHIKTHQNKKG
# Sequence of ZFP SBS#746 (synthetic) (chain, as listed by the source): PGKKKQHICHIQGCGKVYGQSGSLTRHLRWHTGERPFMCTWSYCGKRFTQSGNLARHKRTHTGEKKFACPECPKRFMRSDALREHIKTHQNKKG
# Sequence of ZFP SBS#704 (synthetic) (chain, as listed by the source): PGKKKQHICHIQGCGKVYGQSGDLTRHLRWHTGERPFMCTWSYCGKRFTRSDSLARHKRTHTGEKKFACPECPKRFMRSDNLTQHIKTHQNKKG
# Sequence of ZFP SBS#734 (synthetic) (chain, as listed by the source): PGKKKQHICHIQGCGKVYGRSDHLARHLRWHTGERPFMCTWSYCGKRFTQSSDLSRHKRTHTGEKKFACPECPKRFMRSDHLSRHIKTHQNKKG
# Sequence of ZFP SBS#751 (synthetic) (chain, as listed by the source): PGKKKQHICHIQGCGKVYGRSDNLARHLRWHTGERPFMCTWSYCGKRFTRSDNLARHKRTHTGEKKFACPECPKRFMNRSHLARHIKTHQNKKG
# Sequence of ZFP SBS#780 (synthetic) (chain, as listed by the source): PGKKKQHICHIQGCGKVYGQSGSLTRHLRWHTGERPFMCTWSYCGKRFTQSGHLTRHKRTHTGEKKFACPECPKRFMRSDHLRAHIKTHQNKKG
# Sequence of ZFP SBS#428 (synthetic) (chain, as listed by the source): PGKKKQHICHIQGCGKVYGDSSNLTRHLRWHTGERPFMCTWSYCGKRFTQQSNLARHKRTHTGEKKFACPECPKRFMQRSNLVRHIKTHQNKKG
# Sequence of ZFP SBS#741 (synthetic) (chain, as listed by the source): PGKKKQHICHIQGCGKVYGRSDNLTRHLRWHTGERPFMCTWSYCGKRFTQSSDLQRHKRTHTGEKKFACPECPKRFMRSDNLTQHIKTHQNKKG
# Sequence of ZFP SBS#762 (P08047 other isoform, or with tags, fused parts or gaps): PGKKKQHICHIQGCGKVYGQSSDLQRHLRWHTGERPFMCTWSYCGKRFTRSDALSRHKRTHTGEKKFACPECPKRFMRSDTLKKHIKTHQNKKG
# Sequence of ZFP SBS#429 (synthetic) (chain, as listed by the source): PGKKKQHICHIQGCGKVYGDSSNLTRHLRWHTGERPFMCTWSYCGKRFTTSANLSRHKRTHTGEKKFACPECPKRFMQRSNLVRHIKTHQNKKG
# Sequence of ZFP SBS#727 (P08047 other isoform, or with tags, fused parts or gaps): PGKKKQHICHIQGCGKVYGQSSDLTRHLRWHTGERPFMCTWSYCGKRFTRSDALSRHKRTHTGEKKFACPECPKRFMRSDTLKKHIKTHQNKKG
binder,measurement,setting,value
CGGGCGGCTG (dsDNA) DNA 1: CGGGCGGCTG DNA 2: CAGCCGCCCG,Kd,ZFP SBS#757,14.5 nM
same,Kd,ZFP SBS#758,16.5 nM
AAGGCTGAGA (dsDNA) DNA 1: AAGGCTGAGA DNA 2: TCTCAGCCTT,Kd,ZFP SBS#741,15 nM
AAGGTGGCAG (dsDNA) DNA 1: AAGGTGGCAG DNA 2: CTGCCACCTT,Kd,ZFP SBS#740,12.5 nM
same,Kd,ZFP SBS#607,6.5 nM
same,Kd,ZFP SBS#704,5 nM
ATGGACGGGT (dsDNA) DNA 1: ATGGACGGGT DNA 2: ACCCGTCCAT,Kd,ZFP SBS#776,0.4 nM
same,Kd,ZFP SBS#777,3.4 nM
CTATTTTGGG (dsDNA) DNA 1: CTATTTTGGG DNA 2: CCCAAAATAG,Kd,ZFP SBS#747,2000 nM
GCGGTGGCTC (dsDNA) DNA 1: GCGGTGGCTC DNA 2: GAGCCACCGC,Kd,ZFP SBS#727,0.1 nM
same,Kd,ZFP SBS#735,0.05 nM
same,Kd,ZFP SBS#762,18 nM
same,Kd,ZFP SBS#761,6 nM
GAGGTGGGGA (dsDNA) DNA 1: GAGGTGGGGA DNA 2: TCCCCACCTC,Kd,ZFP SBS#736,0.47 nM
same,Kd,ZFP SBS#752,31 nM
CGGGGAGCAG (dsDNA) DNA 1: CGGGGAGCAG DNA 2: CTGCTCCCCG,Kd,ZFP SBS#779,0.5 nM
same,Kd,ZFP SBS#780,0.5 nM
GGGGCTGGGT (dsDNA) DNA 1: GGGGCTGGGT DNA 2: ACCCAGCCCC,Kd,ZFP SBS#734,0.25 nM
GAAGATGAC (dsDNA) DNA 1: GAAGATGAC DNA 2: GTCATCTTC,Kd,ZFP SBS#567,47.5 nM
same,Kd,ZFP SBS#429,50 nM
same,Kd,ZFP SBS#428,120 nM
GGTGAGGAGT (dsDNA) DNA 1: GGTGAGGAGT DNA 2: ACTCCTCACC,Kd,ZFP SBS#712,9.5 nM
same,Kd,ZFP SBS#728,15 nM
same,Kd,ZFP SBS#751,7 nM
same,Kd,ZFP SBS#713,0.15 nM
TTGGACGGCG (dsDNA) DNA 1: TTGGACGGCG DNA 2: CGCCGTCCAA,Kd,ZFP SBS#748,112 nM
same,Kd,ZFP SBS#759,37 nM
same,Kd,ZFP SBS#749,11.3 nM
same,Kd,ZFP SBS#760,148 nM
GATGACGAC (dsDNA) DNA 1: GATGACGAC DNA 2: GTCGTCATC,Kd,ZFP SBS#430,250 nM
same,Kd,ZFP SBS#568,300 nM
ACGGGGTTAT (dsDNA) DNA 1: ACGGGGTTAT DNA 2: ATAACCCCGT,Kd,ZFP SBS#745,12.5 nM
same,Kd,ZFP SBS#744,8.33 nM
same,Kd,ZFP SBS#742,29 nM
same,Kd,ZFP SBS#743,10 nM
GCGGGTGGGG (dsDNA) DNA 1: GCGGGTGGGG DNA 2: CCCCACCCGC,Kd,ZFP SBS#733,0.32 nM
same,Kd,ZFP SBS#732,22.5 nM
CTGGAAGCAT (dsDNA) DNA 1: CTGGAAGCAT DNA 2: ATGCTTCCAG,Kd,ZFP SBS#746,2.07 nM
